Patent US20230071371A1 (Scripps Research, published 2023)
Read-outs that look alike come from different tables or passages of the source. Bridges are numbered along the chain shown (N, C = ends). Where no end group is shown, it is not given here. [ ]: non-standard residue; d: D form. staple K4 = not defined here; staple K5 = not defined here; L4A = not defined here; L5A = not defined here; Aib = CC(C)(N)C(=O)O

T1: human GIPR (human, UniProt P48546 22-466)
T1 sequence (looked up): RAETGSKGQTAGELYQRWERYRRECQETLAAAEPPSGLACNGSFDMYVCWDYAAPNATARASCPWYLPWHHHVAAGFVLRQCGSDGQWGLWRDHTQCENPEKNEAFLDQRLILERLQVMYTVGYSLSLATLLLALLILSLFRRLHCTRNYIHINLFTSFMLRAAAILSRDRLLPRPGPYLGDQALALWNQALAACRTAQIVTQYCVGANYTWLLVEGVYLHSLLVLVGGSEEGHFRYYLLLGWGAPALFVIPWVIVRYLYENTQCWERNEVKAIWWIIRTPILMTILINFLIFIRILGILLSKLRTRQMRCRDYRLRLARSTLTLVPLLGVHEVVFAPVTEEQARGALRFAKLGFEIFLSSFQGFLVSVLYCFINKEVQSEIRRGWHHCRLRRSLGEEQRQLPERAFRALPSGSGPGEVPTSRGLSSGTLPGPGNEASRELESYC


Legend:
human GIPR [1] = target: T1, human GIPR
human GLP-1R [2] = target: T2, human GLP-1R (human, UniProt P43220 24-463)
Target sequence in this assay (P43220 24-463): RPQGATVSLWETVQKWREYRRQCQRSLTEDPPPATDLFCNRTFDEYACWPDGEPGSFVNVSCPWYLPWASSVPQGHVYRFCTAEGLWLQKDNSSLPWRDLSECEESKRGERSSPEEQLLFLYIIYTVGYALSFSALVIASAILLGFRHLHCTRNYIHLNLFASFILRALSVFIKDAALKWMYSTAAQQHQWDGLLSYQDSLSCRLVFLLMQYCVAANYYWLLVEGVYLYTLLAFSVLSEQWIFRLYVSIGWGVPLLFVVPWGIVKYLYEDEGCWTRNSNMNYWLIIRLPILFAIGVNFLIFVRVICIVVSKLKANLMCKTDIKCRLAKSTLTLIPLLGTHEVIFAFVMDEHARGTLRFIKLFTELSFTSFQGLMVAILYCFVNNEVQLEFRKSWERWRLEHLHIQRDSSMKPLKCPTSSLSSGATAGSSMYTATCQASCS

[3] = target: human serum albumin (human) (UniProt P02768); experiment: calculated from the SPR affinity
rat serum albumin (rat) = rat serum albumin (rat) (UniProt P02770); experiment: calculated from the SPR affinity
human GLP-1R [4] = target: T2, human GLP-1R; experiment: cell-based or functional assay
human GIPR [5] = target: T1, human GIPR; experiment: cell-based or functional assay
human GIPR [6] = target: T1, human GIPR; experiment: cell-based or functional assay; remark: listed apart in the source
human GLP-1R [7] = target: T2, human GLP-1R; experiment: cell-based or functional assay; remark: listed apart in the source
human GCGR (human) = human GCGR (human) (UniProt P47871); experiment: cell-based or functional assay
human GLP-1R (human) = human GLP-1R (human) (UniProt P43220); experiment: cell-based or functional assay
human GLP-1R [8] = target: T2, human GLP-1R; experiment: cell-based or functional assay; remark: listed apart in the source

Chain of human GCGR (human) (P47871 26-477): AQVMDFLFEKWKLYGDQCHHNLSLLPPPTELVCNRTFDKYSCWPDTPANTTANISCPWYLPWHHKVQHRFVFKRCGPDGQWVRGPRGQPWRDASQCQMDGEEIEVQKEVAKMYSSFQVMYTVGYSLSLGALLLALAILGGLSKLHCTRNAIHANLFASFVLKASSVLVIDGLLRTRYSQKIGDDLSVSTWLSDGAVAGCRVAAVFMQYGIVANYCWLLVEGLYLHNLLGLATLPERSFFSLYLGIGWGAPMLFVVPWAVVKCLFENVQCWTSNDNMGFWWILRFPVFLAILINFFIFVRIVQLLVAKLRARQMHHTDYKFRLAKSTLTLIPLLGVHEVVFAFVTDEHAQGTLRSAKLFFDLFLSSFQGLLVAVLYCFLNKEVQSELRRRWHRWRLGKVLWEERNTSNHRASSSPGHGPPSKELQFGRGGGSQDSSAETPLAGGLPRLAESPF
Chain of human GLP-1R (human) (P43220 24-463): as the sequence (P43220 24-463) above
Chain of rat serum albumin (rat) (P02770 25-608 limits assumed): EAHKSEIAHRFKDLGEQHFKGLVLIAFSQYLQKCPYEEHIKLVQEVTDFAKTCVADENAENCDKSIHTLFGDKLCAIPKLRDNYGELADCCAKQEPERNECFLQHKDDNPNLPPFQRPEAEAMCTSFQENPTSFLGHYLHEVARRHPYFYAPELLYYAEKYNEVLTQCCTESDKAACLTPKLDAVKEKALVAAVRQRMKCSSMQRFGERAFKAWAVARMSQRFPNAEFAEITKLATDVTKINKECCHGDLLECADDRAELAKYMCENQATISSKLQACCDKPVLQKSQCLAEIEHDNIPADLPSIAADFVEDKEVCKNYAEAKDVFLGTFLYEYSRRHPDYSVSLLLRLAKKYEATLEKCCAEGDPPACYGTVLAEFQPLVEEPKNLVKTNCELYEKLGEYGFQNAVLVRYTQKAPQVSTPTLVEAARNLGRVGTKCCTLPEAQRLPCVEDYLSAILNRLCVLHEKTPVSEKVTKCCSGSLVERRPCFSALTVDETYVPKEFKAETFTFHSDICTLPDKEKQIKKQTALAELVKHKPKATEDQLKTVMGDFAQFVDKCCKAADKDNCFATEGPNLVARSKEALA
Chain of human serum albumin (human) (P02768 25-609 limits assumed): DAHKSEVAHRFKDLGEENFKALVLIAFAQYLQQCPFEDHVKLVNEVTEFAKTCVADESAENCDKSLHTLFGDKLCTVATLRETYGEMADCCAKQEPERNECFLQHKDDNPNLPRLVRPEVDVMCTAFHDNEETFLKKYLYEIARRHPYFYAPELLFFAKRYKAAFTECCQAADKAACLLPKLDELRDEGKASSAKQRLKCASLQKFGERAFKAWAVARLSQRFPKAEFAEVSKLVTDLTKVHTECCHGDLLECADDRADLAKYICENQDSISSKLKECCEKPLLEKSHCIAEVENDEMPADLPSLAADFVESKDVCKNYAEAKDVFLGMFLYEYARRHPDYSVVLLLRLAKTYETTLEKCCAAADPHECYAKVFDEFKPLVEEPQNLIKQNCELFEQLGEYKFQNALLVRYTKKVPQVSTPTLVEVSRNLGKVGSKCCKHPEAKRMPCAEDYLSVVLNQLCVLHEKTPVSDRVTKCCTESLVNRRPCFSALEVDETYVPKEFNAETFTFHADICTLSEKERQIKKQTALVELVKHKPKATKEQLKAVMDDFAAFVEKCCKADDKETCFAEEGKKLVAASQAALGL

Row | Molecule | EC50 Creluc (human GLP-1R [4]) [nM] | EC50 Creluc (human GIPR [5]) [nM] | further results
1 | NNC0090-2746 (peptide) | – | – | EC50 (read off the curve), CRE-luciferase reporter, GIPR Creluc (human GIPR [1]): 0.008 nM
2 | Tirzepatide (peptide) | – | – | EC50 (read off the curve), CRE-luciferase reporter, GLP1R-Creluc (human GLP-1R [2]): 0.2 nM
3 | semaglutide (peptide) | – | – | fu (unbound fraction) [3]: 0.69%; fu (unbound fraction) (rat serum albumin (rat)): 3.3%
4 | Y[Aib]EGTFTSDYSIYKDKQAA[Aib]KFVNWLLAGGPSSGAPPPS (linker 14-21 via staple K4; reading uncertain) [Conjugate 142] | 0.02 | 0.02 | EC50 cAMP 0% FBS (human GIPR [6]): 0.008 nM
5 | Y[Aib]EGTFHSDYDIYKDKQAA[Aib]KFVQWLLAGGPSSGAPPPS (linker 14-21 via staple K5; reading uncertain) [Conjugate 166] | 83.9 | 12.6 | –
6 | YXEGTFTSDYSIYKDKQAAXKFVNWLLAGGPSSGAPPPS (staple K5 on Lys 14, 21; Aib 2, 20) [Conjugate 141] | 0.01 | 0.02 | EC50 cAMP 0% FBS (human GLP-1R [7]): 0.022 nM; EC50 cAMP 0% FBS (human GIPR [6]): 0.0048 nM
7 | YXEGTFTSDYSIYKDKQAALKFVAWLLAGGPSSGAPPPS (staple K5 on Lys 14, 21; Aib 2; D-Ser 8, 11; Nle 20) [Conjugate 170] | 3.74 | 15.7 | –
8 | YXEGTFHSDYDIYKDKQAALKFVAWLLAGGPSSGAPPPS (staple K5 on Lys 14, 21; Aib 2; Nle 20) [Conjugate 168] | > 1000 | 303 | –
9 | YXEGTFTSDYSIYKDKQAALKFVAWLLAGGPSSGAPPPS (staple K4 on Lys 14, 21; Aib 2; D-Ser 8, 11; Nle 20) [Conjugate 169] | 1.32 | 11.3 | –
10 | YXEGTFHSDYDIYKDKQAALKFVAWLLAGGPSSGAPPPS (staple K4 on Lys 14, 21; Aib 2; Nle 20) [Conjugate 167] | 18.8 | 20.4 | –
11 | H[dS]QGTFTSDYSKYLDECAAKEFICWLLNGGPSSGAPPPS (linker 17-24 via L4A; ends not checked) [Conjugate 135] | – | – | EC50 cAMP 0% FBS (human GCGR (human)): 0.0068 nM; EC50 cAMP 0% FBS (human GLP-1R (human)): 0.0075 nM
12 | H[Aib]EGTFTSDVSSYLEGCAAKEFICWLVKGRG-OH (linker 17-24 via L5A; reading uncertain) [Conjugate 186] | – | – | EC50 Cre-Luc (human GLP-1R [8]): 7.3 nM
13 | HXEGTFTSDVSSYLEGKAAKEFIKWLVKGRG (staple K5 on Lys 17, 24; Aib 2; C-terminal -OH) [Conjugate 181] | – | – | EC50 cAMP 0% FBS (human GLP-1R [8]): 0.026 nM
14 | H[dS]QGTFTSDYSKYLDECAAKEFICWLLNGGPSSGAPPPS (linker 17-24 via L5A; ends not checked) [Conjugate 138] | – | – | EC50 cAMP 0% FBS (human GCGR (human)): 1.42 nM; EC50 cAMP 0% FBS (human GLP-1R (human)): 0.908 nM
